Data reported in patent US20250002593A1 (INMAGENE PTE, published 2025).

What was measured:
[1] = target: T1, recombinant hFcRn-his/B2M heterodimer protein (Acrobio, Cat #FCM-H82W4) (human, UniProt P55899 24-297; P61769 21-119); test: BLI (Gator) at pH 6.0, hFcRn-his/B2M on anti-his sensor, antibody analyte
T1 construct: Bought heterodimer

[2] = target: T2, Recombinant hIL-36R protein (Acrobio, Cat #IL2-H52H6) (human, UniProt Q9HB29 20-335); test: BLI (Gator)
T2 construct: Bought soluble protein; also called recombinant human IL-36R protein
T2 sequence: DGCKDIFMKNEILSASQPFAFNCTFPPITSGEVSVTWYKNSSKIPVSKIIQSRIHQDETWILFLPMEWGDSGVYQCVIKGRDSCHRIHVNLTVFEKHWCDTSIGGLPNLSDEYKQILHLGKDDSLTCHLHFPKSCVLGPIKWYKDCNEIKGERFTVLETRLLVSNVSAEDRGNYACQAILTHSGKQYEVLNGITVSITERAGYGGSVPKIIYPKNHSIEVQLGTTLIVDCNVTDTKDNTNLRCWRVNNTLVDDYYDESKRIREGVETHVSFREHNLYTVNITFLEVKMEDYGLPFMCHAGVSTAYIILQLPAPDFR

membrane hIL-36R [3] = target: T3, membrane hIL-36R (human, UniProt Q9HB29 20-575); test: cell-based or functional assay
T3 sequence: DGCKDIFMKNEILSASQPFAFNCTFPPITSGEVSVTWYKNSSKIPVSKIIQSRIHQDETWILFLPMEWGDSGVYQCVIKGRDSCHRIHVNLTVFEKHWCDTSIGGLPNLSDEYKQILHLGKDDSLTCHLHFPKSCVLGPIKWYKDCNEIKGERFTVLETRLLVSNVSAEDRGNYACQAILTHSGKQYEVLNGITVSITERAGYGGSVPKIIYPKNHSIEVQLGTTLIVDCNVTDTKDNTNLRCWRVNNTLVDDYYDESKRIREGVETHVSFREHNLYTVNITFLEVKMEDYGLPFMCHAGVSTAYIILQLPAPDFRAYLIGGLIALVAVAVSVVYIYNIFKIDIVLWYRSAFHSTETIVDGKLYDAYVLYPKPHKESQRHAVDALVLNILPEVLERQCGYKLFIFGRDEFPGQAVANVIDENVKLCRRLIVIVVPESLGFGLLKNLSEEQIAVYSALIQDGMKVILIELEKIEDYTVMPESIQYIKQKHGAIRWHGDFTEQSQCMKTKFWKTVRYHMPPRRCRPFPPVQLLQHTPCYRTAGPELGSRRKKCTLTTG

membrane hIL-36R [4] = target: T3, membrane hIL-36R; test: cell-based or functional assay; remark: listed apart in the source
recombinant hIL-36R-his = target: T4, recombinant hIL-36R-his (human, UniProt Q9HB29 20-337); test: ELISA on coated recombinant hIL-36R-his, HRP anti-hIgG
T4 construct: Residues 1-337 (extracellular domain) are stated for the IL-36R-his used as immunogen; The range includes the signal peptide; no cleavage site is stated; also called recombinant hIL36R protein; recombinant human IL-36R-his protein; not shown: His tag
T4 sequence: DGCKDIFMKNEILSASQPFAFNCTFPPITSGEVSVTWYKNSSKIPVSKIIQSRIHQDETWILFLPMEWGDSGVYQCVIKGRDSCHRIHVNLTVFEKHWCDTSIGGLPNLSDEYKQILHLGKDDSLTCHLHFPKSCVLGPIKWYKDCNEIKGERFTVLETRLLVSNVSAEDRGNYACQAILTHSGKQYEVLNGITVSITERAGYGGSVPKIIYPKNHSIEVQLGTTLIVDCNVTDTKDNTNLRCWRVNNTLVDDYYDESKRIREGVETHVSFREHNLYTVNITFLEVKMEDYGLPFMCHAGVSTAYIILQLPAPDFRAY

membrane hIL-36R [5] = target: T3, membrane hIL-36R; test: flow cytometry on HEK293 cells transfected with hIL-36R, FITC anti-hIgG
[6] = target: T5, Recombinant hIL1R1 protein (human, UniProt P14778 18-332, limits assumed); test: ELISA on coated hIL1R1
T5 sequence (looked up): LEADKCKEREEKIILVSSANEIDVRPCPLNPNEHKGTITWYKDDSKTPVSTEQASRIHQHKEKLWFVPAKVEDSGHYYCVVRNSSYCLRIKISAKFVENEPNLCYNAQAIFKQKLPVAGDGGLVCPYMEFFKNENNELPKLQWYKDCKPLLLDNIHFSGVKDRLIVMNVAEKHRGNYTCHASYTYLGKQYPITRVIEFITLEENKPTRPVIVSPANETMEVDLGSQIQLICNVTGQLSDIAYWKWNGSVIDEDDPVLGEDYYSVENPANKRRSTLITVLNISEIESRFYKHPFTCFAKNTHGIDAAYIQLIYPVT

membrane mouse IL-36R = target: T6, membrane mouse IL-36R (mouse, UniProt Q9ERS7 22-574); test: flow cytometry on HEK293 cells transfected with mouse IL-36R
T6 construct: whole, on cells; also called mouse IL-36R on HEK293 cells transfected with pcDNA3.1-musIL36R
T6 sequence (looked up): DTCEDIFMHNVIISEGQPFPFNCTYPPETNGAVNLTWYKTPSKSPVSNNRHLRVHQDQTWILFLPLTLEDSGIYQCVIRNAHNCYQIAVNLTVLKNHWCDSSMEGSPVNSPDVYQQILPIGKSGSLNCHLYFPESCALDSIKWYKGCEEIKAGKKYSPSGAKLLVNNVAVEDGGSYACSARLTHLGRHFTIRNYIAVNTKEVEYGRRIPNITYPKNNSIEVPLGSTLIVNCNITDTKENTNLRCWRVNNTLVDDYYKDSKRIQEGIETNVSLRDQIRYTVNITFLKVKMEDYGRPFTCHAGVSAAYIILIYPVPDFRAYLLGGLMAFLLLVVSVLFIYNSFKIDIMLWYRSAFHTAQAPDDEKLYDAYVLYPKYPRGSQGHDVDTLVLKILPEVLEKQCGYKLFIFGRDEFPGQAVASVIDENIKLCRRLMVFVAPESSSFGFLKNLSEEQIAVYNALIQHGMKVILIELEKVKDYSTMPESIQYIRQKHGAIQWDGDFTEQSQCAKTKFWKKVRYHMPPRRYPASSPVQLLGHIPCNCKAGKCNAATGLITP

[7] = target: T2, Recombinant hIL-36R protein (Acrobio, …); test: SPR (Biacore T200, 25 C), antibody captured by Fc, hIL-36R analyte

- Kd [1]: 168 nM
- koff [1]: 0.0507 s⁻¹
- kon [1]: 301000 M⁻¹ s⁻¹
- Kd [2]: < 0.1 nM
- kon [2]: 47100 M⁻¹ s⁻¹
- IC50, IL-36α induced IL-6 release in HEK cells (membrane hIL-36R [3]): 0.11 µg/mL
- IC50, IL-36α induced IL-8 release in A431 cells (membrane hIL-36R [3]): 0.195 µg/mL
- IC50, IL-36α induced IL-8 release in HDF cells (membrane hIL-36R [3]): 0.00696 µg/mL
- IC50, IL-36α induced IL-8 release in HEK cells (membrane hIL-36R [3]): 0.129 µg/mL
- IC50, IL-36α induced TNF-a release in HEK cells (membrane hIL-36R [3]): 0.0535 µg/mL
- IC50, IL-36β induced IL-6 release in HEK cells (membrane hIL-36R [3]): 0.0188 µg/mL
- IC50, IL-36β induced IL-8 release in A431 cells (membrane hIL-36R [3]): 0.111 µg/mL
- IC50, IL-36β induced IL-8 release in HEK cells (membrane hIL-36R [3]): 0.0481 µg/mL
- IC50, IL-36β induced TNF-a release in HEK cells (membrane hIL-36R [3]): 0.0235 µg/mL
- IC50, IL-36γ induced IL-6 release in HEK cells (membrane hIL-36R [3]): 0.0446 µg/mL
- IC50, IL-36γ induced IL-8 release in A431 cells (membrane hIL-36R [3]): 0.00877 µg/mL
- IC50, IL-36γ induced IL-8 release in HEK cells (membrane hIL-36R [3]): 0.0326 µg/mL
- IC50, IL-36γ induced TNF-a release in HEK cells (membrane hIL-36R [3]): 0.00526 µg/mL
- IC50, IL-36R reporter assay: inhibition of ligand induced luminescence in Jurkat-IL36R-IL1Racp-NFkB-luc cells (membrane hIL-36R [4]): 0.0237 µg/mL
- EC50 (recombinant hIL-36R-his): 0.00947 µg/mL
- EC50 (membrane hIL-36R [5]): 0.146 µg/mL
- binding result [6]: no binding
- binding result (membrane mouse IL-36R): no binding
- Kd [7]: 1.52 nM
- koff [7]: 4.48e-05 s⁻¹
- kon [7]: 29500 M⁻¹ s⁻¹
B1: 5F7-2a8 (antibody, human IgG4 S228P, kappa)
heavy: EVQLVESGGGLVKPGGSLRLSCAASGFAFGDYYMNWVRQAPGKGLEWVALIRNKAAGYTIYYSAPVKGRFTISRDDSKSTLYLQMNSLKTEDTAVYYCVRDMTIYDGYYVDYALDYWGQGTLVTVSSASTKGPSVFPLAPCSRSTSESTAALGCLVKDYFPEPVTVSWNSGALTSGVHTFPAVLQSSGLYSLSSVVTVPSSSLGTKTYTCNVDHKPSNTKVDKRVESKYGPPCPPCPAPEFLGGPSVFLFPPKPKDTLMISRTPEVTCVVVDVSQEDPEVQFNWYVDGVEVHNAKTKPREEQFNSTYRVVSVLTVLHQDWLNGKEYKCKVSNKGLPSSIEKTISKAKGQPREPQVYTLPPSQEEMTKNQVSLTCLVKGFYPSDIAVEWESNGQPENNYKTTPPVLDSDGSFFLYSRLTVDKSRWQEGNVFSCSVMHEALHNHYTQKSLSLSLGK
light: DIVMTQSPSSVSASVGDRVTITCRASRNINIWLSWYQQKPGKAPKLFIYKASNLHTGVPSRFSGSGSGTDFTLTISSLQPEDFATYYCLQSQSYPLTFGQGTKLEIKRTVAAPSVFIFPPSDEQLKSGTASVVCLLNNFYPREAKVQWKVDNALQSGNSQESVTEQDSKDSTYSLSSTLTLSKADYEKHKVYACEVTHQGLSSPVTKSFNRGEC
notes: also called 5F7-2a8-WT; 5F7-WT
